For orientation: stoichiometry N means the number of molecules, sites or subunits per partner or assembly.

This is an account of results in publication doi:10.1101/197186 (bioRxiv, 2017).

This data set concerns the molecule itself. The data set is described as follows: SEC.

B1: human MORC2(1-603) S87L (domain or fragment)
chain: MAFTNYSSLNRAQLTFEYLHTNSTTHEFLFGALAELVDNARDADATRIDIYAERREDLRGGFMLCFLDDGAGMDPSDAASVIQFGKLAKRTPESTQIGQYGNGLKSGSMRIGKDFILFTKKEDTMTCLFLSRTFHEEEGIDEVIVPLPTWNARTREPVTDNVEKFAIETELIYKYSPFRTEEEVMTQFMKIPGDSGTLVIIFNLKLMDNGEPELDIISNPRDIQMAETSPEGTKPERRSFRAYAAVLYIDPRMRIFIHGHKVQTKRLSCCLYKPRMYKYTSSRFKTRAEQEVKKAEHVARIAEEKAREAESKARTLEVRLGGDLTRDSRVMLRQVQNRAITLRREADVKKRIKEAKQRALKEPKELNFVFGVNIEHRDLDGMFIYNCSRLIKMYEKVGPQLEGGMACGGVVGVVDVPYLVLEPTHNKQDFADAKEYRHLLRAMGEHLAQYWKDIAIAQRGIIKFWDEFGYLSANWNQPPSSELRYKRRRAMEIPTTIQCDLCLKWRTLPFQLSSVEKDYPDTWVCSMNPDPEQDRCEASEQKQKVPLGTFRKDMKTQEEKQKQLTEKIRQQQEKLEALQKTTPIRSQADLKKLPLEVTTRPST
On to B1, for which the “stoichiometry N” value came to 2.
